Data: patent publication US10012655B2, “Method for quantitating total HMGB1 protein in biological samples” (INSTITUT PASTEUR, priority 2008, dated 2018)

System: iDCs
Experiment: Phenotypic maturation of iDCs cultured with rh-HMGB1 or LPS (flow cytometry)
Assay type: cell-based, human
Protocol: FIG. 1 (a)-(e). aNK cells induce the maturation of primary immature HIV-1-infected DCs. (a) iDCs, generated from purified CD14^+ monocytes in the presence of IL-4 and GM-CSF, were cocultured during 24 h with aNK cells at different ratios. DC survival was determined by flow cytometry with the 7-AAD assay. Surviving DCs were identified as 7AAD^−CD56^− cells. Data represent three independent experiments and values are means±sd. (b) aNK cells induce the maturation of iDCs. Flow cytometry analysis of iDCs, which were either infected with R5-HIV-1 BaL (1 ng/ml of p24) for 3 h or uninfected, were incubated with rNK cells or aNK cells at a ratio of 1:5. Co-staining with HLA-DR and CD86 specific antibodies allowed the identification of mature DCs (CD86^brightHLA-DR^bright) Data from a representative experiment out of three independent experiments are shown. (c) The conditions of infection used in this study were those of a productive infection of iDCs, as shown at day 3 by a significant p24 detection in culture supernatant of infected iDCs and intracellular detection by flow cytometry of p24 in DC targeted by CD40 expression. […] The proportion of mDCs induced by LPS (DC0) (78.1% CD86^brightHLA-DR^bright) is shown as a positive control. […]
FIG. 3 (a)-(e). aNK-dependent maturation of HIV-1-infected iDCs is mediated by HMGB1 and involves RAGE. […] The maturation status of DCs was determined by flow cytometry with CD86 and HLA-DR—specific antibodies. […] Cells were then stained with anti-CD86, -HLA-DR, -CD80, -CD83, DC-LAMP and -CD40 antibodies and analyzed by flow cytometry. (c) Influence of rh-HMGB1 on cytokine and chemokine production (determined by MAP) by DCs. iDCs (10^6 cells/ml) were incubated for 48 h in medium or in presence of rh-HMGB1 (1 or 10 μg/ml). […] (e) iDC, DC0, uninfected or HIV-1-infected iDC cocultured for 24 h with aNK cells, were incubated with rh-HMGB1 (1 μg/ml) and subsequently stained with anti-RAGE antibodies and analyzed by flow cytometry. […]

B1: rh-HMGB1: recombinant human HMGB1 protein (R&D Systems) (protein, UniProt P09429 1-215, looked up)
High mobility group protein B1: MGKGDPKKPRGKMSSYAFFVQTCREEHKKKHPDASVNFSEFSKKCSERWKTMSAKEKGKFEDMAKADKARYEREMKTYIPPKGETKKKFKDPNAPKRPPSAFFLFCSEYRPKIKGEHPGLSIGDVAKKLGEMWNNTAADDKQPYEKKAAKLKEKYEKDIAAYRAKGKPDAAKKGVVKAEKSKKKKEEEEDEEDEEDEEEEEDEEDEDEEEDDDDE
- percentage of CD86bright HLA-DRbright DCs (10 μg/ml, 48 h of culture, medium alone 65%): 71%
- phenotypic maturation of iDC (24 h with 1 to 10 μg/ml, similar at 48 h): did not induce phenotypic maturation of iDC
- maturation status by CD80, CD83 and DC-lamp expression (rh-HMGB1-treated DCs, 48 h, compared with DC0): not fully mature
